The record followed here is patent US20110171205A1.

The target of the test is hSlo, human pore-forming α-subunit of the high conductance calcium-activated potassium channel (maxi-K) (human) (UniProt Q12791). The experiment in a line: cell-based or functional assay.
UniProt Q12791, sequence (Q12791 whole entry): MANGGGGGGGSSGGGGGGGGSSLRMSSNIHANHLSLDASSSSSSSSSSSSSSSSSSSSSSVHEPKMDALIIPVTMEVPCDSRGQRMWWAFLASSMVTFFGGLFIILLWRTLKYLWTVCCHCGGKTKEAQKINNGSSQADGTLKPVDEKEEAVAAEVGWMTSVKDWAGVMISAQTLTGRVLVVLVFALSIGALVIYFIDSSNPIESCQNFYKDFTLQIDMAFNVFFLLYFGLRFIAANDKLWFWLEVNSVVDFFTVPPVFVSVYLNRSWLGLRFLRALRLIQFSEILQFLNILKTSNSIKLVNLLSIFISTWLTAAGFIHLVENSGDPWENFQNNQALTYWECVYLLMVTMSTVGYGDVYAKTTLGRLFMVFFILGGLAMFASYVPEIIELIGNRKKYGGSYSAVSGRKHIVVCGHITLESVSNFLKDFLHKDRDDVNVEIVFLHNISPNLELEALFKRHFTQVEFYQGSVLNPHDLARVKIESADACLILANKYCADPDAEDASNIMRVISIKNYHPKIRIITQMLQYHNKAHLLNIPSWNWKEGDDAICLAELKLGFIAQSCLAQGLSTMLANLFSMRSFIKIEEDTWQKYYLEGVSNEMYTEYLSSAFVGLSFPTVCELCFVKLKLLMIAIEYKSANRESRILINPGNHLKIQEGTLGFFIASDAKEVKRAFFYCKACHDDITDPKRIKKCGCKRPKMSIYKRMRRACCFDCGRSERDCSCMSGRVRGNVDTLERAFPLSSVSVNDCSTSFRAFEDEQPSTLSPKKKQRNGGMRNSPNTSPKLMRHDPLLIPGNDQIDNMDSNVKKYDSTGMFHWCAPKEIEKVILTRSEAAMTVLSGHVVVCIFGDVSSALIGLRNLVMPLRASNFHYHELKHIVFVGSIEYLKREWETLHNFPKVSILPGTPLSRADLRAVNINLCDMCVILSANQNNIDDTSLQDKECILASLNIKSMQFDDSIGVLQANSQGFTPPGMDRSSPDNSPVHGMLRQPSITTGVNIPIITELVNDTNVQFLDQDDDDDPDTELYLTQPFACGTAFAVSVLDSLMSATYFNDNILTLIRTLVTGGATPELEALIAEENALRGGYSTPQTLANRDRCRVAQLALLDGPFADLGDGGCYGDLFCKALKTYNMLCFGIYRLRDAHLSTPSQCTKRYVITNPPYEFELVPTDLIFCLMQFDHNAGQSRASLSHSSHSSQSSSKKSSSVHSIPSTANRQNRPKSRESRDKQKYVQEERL

For “charybdotoxin (from UniProt P13487 23-59) (peptide)”, the block of hSlo current (whole cell patch) at 300 nM toxin was > 90%.
Take “iberiotoxin (from UniProt P24663 1-37) (peptide)”: the block of hSlo current (whole cell patch) at 300 nM toxin was > 90%.
